Source: article PMC4072576

Molecular target: FLAG-ctxIII coexpressed in E. coli with His-ctxI or His-ctxII (Dictyostelium discoideum)
Test: AUC

Chain of His-ctxI (recombinant N-terminal His-tagged cortexillin I) (Q54HG2 whole entry): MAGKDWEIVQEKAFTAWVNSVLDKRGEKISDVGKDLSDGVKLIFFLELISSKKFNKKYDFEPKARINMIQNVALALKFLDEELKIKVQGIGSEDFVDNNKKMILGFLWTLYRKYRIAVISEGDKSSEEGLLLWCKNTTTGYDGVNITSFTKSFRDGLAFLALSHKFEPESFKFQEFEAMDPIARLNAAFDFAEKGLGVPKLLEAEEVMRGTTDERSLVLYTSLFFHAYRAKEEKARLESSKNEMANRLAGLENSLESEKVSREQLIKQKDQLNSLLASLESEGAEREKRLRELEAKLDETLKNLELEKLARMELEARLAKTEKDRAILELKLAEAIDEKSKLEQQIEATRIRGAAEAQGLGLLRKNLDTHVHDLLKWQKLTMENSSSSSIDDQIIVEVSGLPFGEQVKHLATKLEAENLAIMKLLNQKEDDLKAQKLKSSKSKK
Chain of His-ctxII (recombinant N-terminal His-tagged cortexillin II) (Q550R2 whole entry): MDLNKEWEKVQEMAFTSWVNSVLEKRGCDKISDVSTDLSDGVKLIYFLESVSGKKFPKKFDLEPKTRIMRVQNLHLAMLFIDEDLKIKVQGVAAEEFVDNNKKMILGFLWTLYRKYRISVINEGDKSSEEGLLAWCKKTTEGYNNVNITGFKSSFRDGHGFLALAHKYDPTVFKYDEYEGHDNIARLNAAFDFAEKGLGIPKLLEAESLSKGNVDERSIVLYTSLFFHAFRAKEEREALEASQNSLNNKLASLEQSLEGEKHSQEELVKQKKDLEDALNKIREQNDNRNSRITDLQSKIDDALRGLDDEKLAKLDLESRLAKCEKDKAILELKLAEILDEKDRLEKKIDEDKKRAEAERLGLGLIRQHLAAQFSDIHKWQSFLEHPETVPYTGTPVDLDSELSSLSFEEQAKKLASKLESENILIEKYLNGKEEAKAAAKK

With “His-ctxI (recombinant N-terminal His-tagged cortexillin I) (from UniProt Q54HG2 1-444) (natural protein)” the major peak (heterodimer), percent of total protein was 60%.
For “His-ctxII (recombinant N-terminal His-tagged cortexillin II) (from UniProt Q550R2 1-441) (natural protein)”, the major peak (heterodimer), percent of total protein was 70%.
